Laboratory results reported in article doi:10.1101/2025.01.22.634223 (bioRxiv, 2025).

B1: GST::hGDI1 (natural protein)
chain: MDEEYDVIVLGTGLTECILSGIMSVNGKKVLHMDRNPYYGGESSSITPLEELYKRFQLLEGPPESMGRGRDWNVDLIPKFLMANGQLVKMLLYTEVTRYLDFKVVEGSFVYKGGKIYKVPSTETEALASNLMGMFEKRRFRKFLVFVANFDENDPKTFEGVDPQTTSMRDVYRKFDLGQDVIDFTGHALALYRTDDYLDQPCLETVNRIKLYSESLARYGKSPYLYPLYGLGELPQGFARLSAIYGGTYMLNKPVDDIIMENGKVVGVKSEGEVARCKQLICDPSYIPDRVRKAGQVIRIICILSHPIKNTNDANSCQIIIPQNQVNRKSDIYVCMISYAHNVAAQGKYIAIASTTVETTDPEKEVEPALELLEPIDQKFVAISDLYEPIDDGCESQVFCSCSYDATTHFETTCNDIKDIYKRMAGTAFDFENMKRKQNDVFGEAEQ

Key:
GST::hGDI1 = molecular target: B1; experiment: pull-down
6HIS::MYC::PIAS1::6HIS = 6HIS::MYC::PIAS1::6HIS (human, UniProt O75925 1-651); experiment: pull-down
Sequence of 6HIS::MYC::PIAS1::6HIS (O75925 whole entry): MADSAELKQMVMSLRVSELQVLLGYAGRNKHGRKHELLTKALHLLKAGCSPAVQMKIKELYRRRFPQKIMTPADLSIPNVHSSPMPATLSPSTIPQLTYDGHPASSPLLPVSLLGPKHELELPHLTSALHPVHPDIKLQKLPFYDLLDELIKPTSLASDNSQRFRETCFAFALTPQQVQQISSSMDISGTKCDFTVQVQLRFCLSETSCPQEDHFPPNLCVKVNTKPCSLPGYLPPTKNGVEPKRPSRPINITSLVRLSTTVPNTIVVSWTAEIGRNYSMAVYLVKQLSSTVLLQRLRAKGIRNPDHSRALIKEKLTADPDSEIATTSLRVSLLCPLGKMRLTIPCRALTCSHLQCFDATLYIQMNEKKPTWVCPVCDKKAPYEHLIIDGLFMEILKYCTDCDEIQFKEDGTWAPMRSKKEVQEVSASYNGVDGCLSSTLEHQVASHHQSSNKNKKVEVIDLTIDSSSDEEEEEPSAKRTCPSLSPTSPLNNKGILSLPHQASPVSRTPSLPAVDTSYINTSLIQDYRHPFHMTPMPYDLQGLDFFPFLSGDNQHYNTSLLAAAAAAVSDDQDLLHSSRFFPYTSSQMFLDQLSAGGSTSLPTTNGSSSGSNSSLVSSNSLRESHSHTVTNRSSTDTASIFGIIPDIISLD

Row | Binder | binding result (GST::hGDI1) | binding result (6HIS::MYC::PIAS1::6HIS)
1 | 6HIS::MYC::RAB1A::6HIS (natural protein) not shown | binds | –
2 | B1 | – | binds
